Key:
[1] = target: T1, MASP-1 CCP1-CCP2-SP (Homo sapiens, UniProt P48740); test: Inhibition of the enzymatic activities of the MASP-1 fragment by C1-inhibitor and alpha-2-macroglobulin; assay type: biochemical
T1 construct: made in house
T1 sequence (P48740 298-699): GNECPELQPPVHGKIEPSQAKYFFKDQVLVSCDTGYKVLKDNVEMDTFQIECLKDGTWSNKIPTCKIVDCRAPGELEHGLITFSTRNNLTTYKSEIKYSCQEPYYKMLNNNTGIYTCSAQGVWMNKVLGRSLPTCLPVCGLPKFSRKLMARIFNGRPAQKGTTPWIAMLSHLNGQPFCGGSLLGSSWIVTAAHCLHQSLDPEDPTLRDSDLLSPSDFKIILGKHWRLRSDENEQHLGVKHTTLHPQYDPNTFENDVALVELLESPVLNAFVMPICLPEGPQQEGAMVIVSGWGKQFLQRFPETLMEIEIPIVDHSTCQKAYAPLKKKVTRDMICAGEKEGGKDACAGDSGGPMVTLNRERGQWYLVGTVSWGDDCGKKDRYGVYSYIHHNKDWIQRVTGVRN
Protocol: (§1) Reactivity toward C1-inhibitor and alpha-2-macroglobulin—Inhibition of the enzymatic activities of the MASP fragments by C1-inhibitor and alpha-2-macroglobulin were tested as follows. MASP-1 and MASP-2 fragments at concentrations selected in the C2, C3, C3(NH3) and C4 cleavage tests were incubated at 37° C. with excess molar ratios of either C1-inhibitor, alpha-2-macroglobulin, or buffer in 20 mM HEPES, 140 mM NaCl, pH 7.4 for 40 minutes. Complement substrates C2, C3, C3(NH3) or C4 were added at typical concentrations of 0.5-1 μM and the samples were further incubated for 20 minutes. The cleaved and uncleaved chains were visualized by reducing SDS-PAGE and the degree of inhibition was compared.

[2] = target: T2, MASP-2 fragments (Homo sapiens, UniProt O00187); test: Inhibition of the enzymatic activities of the MASP-2 fragments by C1-inhibitor and alpha-2-macroglobulin; assay type: biochemical; conditions: for molar excess of inhibitor that abolishes all cleavages by the MASP-2 fragments: preincubation, C2, C3, C3(NH3), C4 substrates
T2 construct: T7-Tag fragment Ala-Ser-Met (N, cleaved yes); made in house
Protocol: as §1

[3] = marginal molar excess over the enzyme

T2 sequence (O00187 445-686 limits assumed): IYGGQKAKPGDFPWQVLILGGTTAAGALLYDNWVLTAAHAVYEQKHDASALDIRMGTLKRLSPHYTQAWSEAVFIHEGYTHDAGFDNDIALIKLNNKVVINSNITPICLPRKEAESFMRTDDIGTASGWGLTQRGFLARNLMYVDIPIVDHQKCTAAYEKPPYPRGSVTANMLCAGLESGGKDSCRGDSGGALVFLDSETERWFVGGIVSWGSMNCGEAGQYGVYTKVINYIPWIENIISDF
T2 sequence (O00187 291-444 partner limits assumed): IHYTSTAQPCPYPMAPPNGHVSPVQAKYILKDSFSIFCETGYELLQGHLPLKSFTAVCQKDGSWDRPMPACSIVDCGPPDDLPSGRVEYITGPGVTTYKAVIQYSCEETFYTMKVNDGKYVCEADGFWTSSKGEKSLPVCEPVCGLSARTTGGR

effect on proteolytic activity of MASP-1 on all substrates, in words [1, 3] | effect on proteolytic activity of MASP-2 on all substrates, in words [2, 3] | molar excess of inhibitor that abolishes all cleavages by the MASP-2 fragments [2] | molar excess that completely blocks cleavage of C2 by the MASP-1 CCP1-CCP2-SP fragment ([1]; C2 cleavage) | molar excess over MASP-1 CCP1-CCP2-SP that blocks C3 cleavages ([1]; C3 cleavage) | molar excess over the MASP-2 fragments capable of significantly hindering C2 and C4 cleavage ([2]; C2 and C4 cleavage) | molar excess over MASP-2 CCP1-CCP2-SP that blocks C3 cleavages ([2]; C3 cleavage) | Substance
completely abolished | completely abolished | 1-3 fold | – | – | – | – | C1-inhibitor: serpin C1-inhibitor purified from human serum
– | – | 40 fold | 1-3 fold | 1-3 fold | 40 fold | 1-3 fold | alpha-2-macroglobulin: human alpha-2-macroglobulin isolated from plasma
